According to patent US20090181035A1 (Genentech, published 2009):

T1: PlxD1-Fc (human PlexinD1 ECD Met1 to Ala1271 fused to the Fc portion of human IgG1) (human, UniProt Q9Y4D7 47-1271)
T1 construct: range 1-1271; also called PlexinD1 immunoadhesin; soluble PlexinD1; not shown: Fc portion of human IgG1
T1 sequence (looked up): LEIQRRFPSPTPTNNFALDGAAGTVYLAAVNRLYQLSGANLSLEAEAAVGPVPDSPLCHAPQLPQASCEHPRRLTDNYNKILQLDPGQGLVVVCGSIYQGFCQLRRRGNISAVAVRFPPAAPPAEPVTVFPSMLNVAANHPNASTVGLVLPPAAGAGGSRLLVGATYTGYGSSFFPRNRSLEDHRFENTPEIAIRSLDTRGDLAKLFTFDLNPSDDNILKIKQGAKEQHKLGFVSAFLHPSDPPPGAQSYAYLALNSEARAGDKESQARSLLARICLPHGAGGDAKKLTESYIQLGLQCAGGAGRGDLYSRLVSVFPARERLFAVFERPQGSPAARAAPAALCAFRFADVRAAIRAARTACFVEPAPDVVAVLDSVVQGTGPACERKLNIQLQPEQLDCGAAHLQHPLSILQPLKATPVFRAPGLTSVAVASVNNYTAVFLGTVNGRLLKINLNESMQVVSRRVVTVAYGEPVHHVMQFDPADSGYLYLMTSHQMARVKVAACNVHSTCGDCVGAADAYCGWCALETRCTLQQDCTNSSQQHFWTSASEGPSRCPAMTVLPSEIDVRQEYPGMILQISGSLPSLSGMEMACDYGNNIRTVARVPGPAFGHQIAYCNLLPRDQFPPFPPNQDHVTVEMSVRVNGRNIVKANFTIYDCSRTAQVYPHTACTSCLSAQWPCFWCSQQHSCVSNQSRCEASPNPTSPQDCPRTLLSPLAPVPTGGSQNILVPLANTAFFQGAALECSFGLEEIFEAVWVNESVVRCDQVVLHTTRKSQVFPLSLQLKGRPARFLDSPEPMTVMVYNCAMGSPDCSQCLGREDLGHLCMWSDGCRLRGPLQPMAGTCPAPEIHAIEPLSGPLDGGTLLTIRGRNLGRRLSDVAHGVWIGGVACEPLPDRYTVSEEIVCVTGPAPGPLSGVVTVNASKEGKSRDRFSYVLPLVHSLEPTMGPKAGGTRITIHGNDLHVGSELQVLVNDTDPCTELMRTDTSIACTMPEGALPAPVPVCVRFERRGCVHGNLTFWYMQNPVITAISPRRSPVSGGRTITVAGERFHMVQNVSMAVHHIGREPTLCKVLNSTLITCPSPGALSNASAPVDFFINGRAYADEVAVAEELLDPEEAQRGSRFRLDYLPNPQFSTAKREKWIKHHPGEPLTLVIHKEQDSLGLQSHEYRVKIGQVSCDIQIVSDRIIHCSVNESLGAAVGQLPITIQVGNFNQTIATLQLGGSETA


Experiments:
[1] = molecular target: T2, murine PlexinD1 expressed on mouse microvascular endothelial (MS1) cells (mouse, UniProt Q3UH93 49-1925); assay: FACS on MS1 cells
T2 construct: whole, on cells; Endogenous receptor on a cell line

[2] = molecular target: T3, human PlexinD1 expressed on human umbilical vein endothelial cells (HUVECs) (human, UniProt Q9Y4D7 47-1925); assay: radioligand cell binding assay on HUVECs; radioligand binding on HUVECs (endogenous human PlexinD1); Fc fusion, not His
T3 construct: whole, on cells; Endogenous receptor on primary cells; also called native PlexinD1

[3] = molecular target: T1, PlxD1-Fc (human PlexinD1 ECD Met1 to …); assay: SPR (Biacore 3000, 25 C); PlxD1-Fc amine-coupled on CM5 chip, Sema3E^SD-His as analyte; one-to-one model; SPR, 25 C; PlxD1-Fc on the chip, His-tagged Sema3E^SD as analyte
Protocol: Binding experiments were performed by SPR measurements on a Biacore 3000 instrument (Biacore Inc.) at 25° C. PlxD1-Fc constructed as described in Example 1 was immobilized at high surface density (˜10,000 RU) on an activated CM5 chip using standard amine coupling procedures as described by the manufacturer. PlxD1-Fc was injected at a concentration of 10 μg/ml in 20 mM sodium acetate, pH 4.5 and at a flow rate of 5 μl/min until desired surface densities, measured in response units (RU), were reached. Unreacted groups were blocked by injecting 1 M ethanolamine. To perform binding assays, different concentrations of Sema3E^SD-His were injected in 10 mM HEPES pH 7.4, 150 mM NaCl, 0.005% v/v Surfactant P20, at a flow rate of 5 μl/min. Blank surfaces were used for background corrections. Injections of 10 mM glycine, pH 3.0 at 100 μl/min for 1 min were used to regenerate surfaces between two binding experiments. Kinetic analysis was performed with binding sensorgrams of different analyte concentrations using the BIAevaluation Software (Biacore Inc.). An one-to-one binding model was used to fit the experimental data for association and dissociation reactions. Dissociation constants were calculated from the on and off rates. […] Radioligand cell binding assays were performed and the dissociation constant for Sema3E^SD-Fc binding to HUVECs was calculated to 4 nM.

binding result [1]	Kd [2] [nM]	Kd [3] [nM]	Binder
binds	4		Sema3E^SD-Fc (human Semaphorin 3E Met1 to Ala554 of SEQ ID NO: 1 with the Fc portion of human IgG1 as C-terminal fusion partner) (Fc fusion, The construct as cloned starts at Met1; also called Sema3E^SD-Fc immunoadhesin; not shown: Fc portion of human IgG1) ADTTHPRLRLSHKELLNLNRTSIFHSPFGFLDLHTMLLDEYQERLFVGGRDLVYSLSLERISDGYKEIHWPSTALKMEECIMKGKDAGECANYVRVLHHYNRTHLLTCGTGAFDPVCAFIRVGYHLEDPLFHLESPRSERGRGRCPFDPSSSFISTLIGSELFAGLYSDYWSRDAAIFRSMGRLAHIRTEHDDERLLKEPKFVGSYMIPDNEDRDDNKVYFFFTEKALEAENNAHAIYTRVGRLCVNDVGGQRILVNKWSTFLKARLVCSVPGMNGIDTYFDELEDVFLLPTRDHKNPVIFGLFNTTSNIFRGHAICVYHMSSIRAAFNGPYAHKEGPEYHWSVYEGKVPYPRPGSCASKVNGGRYGTTKDYPDDAIRFARSHPLMYQAIKPAHKKPILVKTDGKYNLKQIAVDRVEAEDGQYDVLFIGTDNGIVLKVITIYNQEMESMEEVILEELQIFKDPVPIISMEISSKRQQLYIGSASAVAQVRFHHCDMYGSACADCCLARDPYCAWDGISCSRYYPTGTHA
		24	Sema3E^SD-His (human Semaphorin 3E Ala26 to Arg560 of SEQ ID NO: 1 with an N-terminal Histidine tag) (ligand, not shown: small tags and cut ends, Produced by transient transfection of CHO cells; also called His-tagged Sema3E^SD; soluble Sema3E sema domain construct) ADTTHPRLRLSHKELLNLNRTSIFHSPFGFLDLHTMLLDEYQERLFVGGRDLVYSLSLERISDGYKEIHWPSTALKMEECIMKGKDAGECANYVRVLHHYNRTHLLTCGTGAFDPVCAFIRVGYHLEDPLFHLESPRSERGRGRCPFDPSSSFISTLIGSELFAGLYSDYWSRDAAIFRSMGRLAHIRTEHDDERLLKEPKFVGSYMIPDNEDRDDNKVYFFFTEKALEAENNAHAIYTRVGRLCVNDVGGQRILVNKWSTFLKARLVCSVPGMNGIDTYFDELEDVFLLPTRDHKNPVIFGLFNTTSNIFRGHAICVYHMSSIRAAFNGPYAHKEGPEYHWSVYEGKVPYPRPGSCASKVNGGRYGTTKDYPDDAIRFARSHPLMYQAIKPAHKKPILVKTDGKYNLKQIAVDRVEAEDGQYDVLFIGTDNGIVLKVITIYNQEMESMEEVILEELQIFKDPVPIISMEISSKRQQLYIGSASAVAQVRFHHCDMYGSACADCCLARDPYCAWDGISCSRYYPTGTHAKRRFRR
